One molecule from patent US20250277199, “NOVEL CRISPR-CAS NUCLEASES FROM METAGENOMES” (Brain Biotech AG, published 2025) can be followed below.

The data set addresses T1, BMC05 (uncultured bacterium (metagenome)).
T1 chain: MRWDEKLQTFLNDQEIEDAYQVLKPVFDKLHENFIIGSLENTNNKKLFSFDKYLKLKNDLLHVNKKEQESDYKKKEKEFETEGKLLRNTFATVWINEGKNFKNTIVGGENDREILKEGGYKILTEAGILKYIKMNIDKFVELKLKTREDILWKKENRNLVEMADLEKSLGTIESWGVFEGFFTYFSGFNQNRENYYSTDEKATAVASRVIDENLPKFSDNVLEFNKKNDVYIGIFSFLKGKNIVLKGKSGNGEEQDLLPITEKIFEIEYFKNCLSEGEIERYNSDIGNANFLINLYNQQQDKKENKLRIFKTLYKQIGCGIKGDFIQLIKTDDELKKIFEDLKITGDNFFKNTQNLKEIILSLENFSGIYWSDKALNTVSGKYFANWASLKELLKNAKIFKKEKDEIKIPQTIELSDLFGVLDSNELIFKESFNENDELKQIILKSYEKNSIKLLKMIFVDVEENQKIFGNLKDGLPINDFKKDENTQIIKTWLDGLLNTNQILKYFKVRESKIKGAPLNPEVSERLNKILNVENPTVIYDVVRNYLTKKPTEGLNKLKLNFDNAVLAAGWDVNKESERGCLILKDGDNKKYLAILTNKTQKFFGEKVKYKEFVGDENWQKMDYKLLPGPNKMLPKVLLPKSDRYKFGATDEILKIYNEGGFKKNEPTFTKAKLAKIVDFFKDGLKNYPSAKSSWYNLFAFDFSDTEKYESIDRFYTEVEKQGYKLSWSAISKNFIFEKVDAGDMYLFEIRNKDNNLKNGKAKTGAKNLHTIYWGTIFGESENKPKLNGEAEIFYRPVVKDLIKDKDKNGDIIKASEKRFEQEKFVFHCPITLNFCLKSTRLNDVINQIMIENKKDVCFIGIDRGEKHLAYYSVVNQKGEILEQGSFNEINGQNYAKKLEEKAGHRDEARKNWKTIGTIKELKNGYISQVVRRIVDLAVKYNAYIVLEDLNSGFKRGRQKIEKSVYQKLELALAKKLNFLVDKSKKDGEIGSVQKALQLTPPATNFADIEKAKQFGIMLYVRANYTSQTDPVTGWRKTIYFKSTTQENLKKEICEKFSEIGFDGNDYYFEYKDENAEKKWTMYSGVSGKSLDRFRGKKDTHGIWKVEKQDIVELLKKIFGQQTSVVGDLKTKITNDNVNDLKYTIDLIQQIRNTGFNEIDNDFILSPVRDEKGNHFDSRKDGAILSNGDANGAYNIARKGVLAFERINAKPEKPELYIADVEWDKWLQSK
Description: cell_activity; PAM not stated; E. coli depletion, 30 C. In short, it runs like this:
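E. coli carrying arabinose-induced (0.2%) BMC nuclease, grown at 30° C., made electrocompetent and electroporated with 50-100 ng plasmid carrying gRNA against malQ. Transformants plated on selective M9-glucose agar with kanamycin/ampicillin (± nourseothricin), and growth scored after 48 h at 30° C.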

B1: malQ gRNA (BMC stem-loop + 24 nt spacer) ; malQ protospacer (ssRNA ; dsDNA)
RNA: GAUUUCUACUAUUGUAGAUGUGGCGGUACGUUGAUGCAUCGCG
DNA 1: GTGGCGGTACGTTGATGCATCGCG
DNA 2: CGCGATGCATCAACGTACCGCCAC
Molecule B1 returned an activity greater than 99.9 % colony reduction.
